The source of these data is publication doi:10.1101/2025.11.26.690658 (bioRxiv, 2025).

One may read the stoichiometry N as the number of molecules, sites or subunits per partner or assembly.

Data set [1] deals with McsAZ2-McsB complex (heterotetramer of a McsB dimer and two McsAZ2) (Bacillus subtilis strain 168) (UniProt P37569). Briefly: cryo-EM structure.
The target in data set [2] is T1, McsB(R194A), the McsB chain of the McsAZ2(R115A)-McsB(R194A) mutant (Bacillus subtilis strain 168, UniProt P37570 1-363, R194A).
T1 sequence: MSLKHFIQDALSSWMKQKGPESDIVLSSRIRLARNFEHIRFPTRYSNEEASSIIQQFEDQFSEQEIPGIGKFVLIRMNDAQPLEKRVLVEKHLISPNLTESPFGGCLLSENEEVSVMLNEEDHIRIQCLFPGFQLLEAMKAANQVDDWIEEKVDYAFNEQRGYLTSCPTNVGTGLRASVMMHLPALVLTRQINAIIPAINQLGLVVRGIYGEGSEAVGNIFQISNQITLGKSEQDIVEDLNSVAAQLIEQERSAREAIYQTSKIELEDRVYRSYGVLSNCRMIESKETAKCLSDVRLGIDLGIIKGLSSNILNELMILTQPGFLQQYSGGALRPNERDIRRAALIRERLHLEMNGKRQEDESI
The experiment in a line: SEC. On the technique in general: In gel filtration, larger molecules generally elute earlier.

Data set [3] concerns the molecule itself. Briefly: cryo-EM structure.

Changes are numbered by the printed parent chain.

Consider “McsAZ2-McsB complex (heterotetramer of a McsB dimer and two McsAZ2) (from UniProt P37569;P37570)”, for which the stoichiometry N in data set [1] stood at 2 tetramers.

B1: CtsRCTD (C-terminal domain of CtsR, residues 75–154) (domain or fragment)
chain: KMNNEVVLINNIISQINTHLSQAASDDIILRLLEDKVISEREAKMMVSVMDRSVLHIDLPERDELRARMMKAMLTSLKLK
B1: the binding result in data set [2] is “binds”.

B2: McsB (B. subtilis protein-arginine kinase subunit), coexpressed with McsAZ2 (enzyme)
chain: T1 sequence with A194R
modifications: phosphoarginine at 194 and 333 (pR194, pR333)
Take B2: the “stoichiometry N” value in data set [3] was 2.

B3: CtsR (B. subtilis transcriptional repressor), full length (natural protein)
chain: MGHNISDIIEQYLKRVLDQNGKEILEIKRSEIADKFQCVPSQINYVINTRFTSERGYIVESKRGGGGYIRIIKIKMNNEVVLINNIISQINTHLSQAASDDIILRLLEDKVISEREAKMMVSVMDRSVLHIDLPERDELRARMMKAMLTSLKLK
As to B3, the binding result in data set [2] is recorded as “binds”.
